# Experimental data taken from publication PMC9733933.
# Biological target: SARS-CoV-2 nsp7-11 polyprotein (SARS-CoV-2)
# Test: SEC-MALS
substance,measurement,value
SARS-CoV-2 nsp7-11 polyprotein (domain or fragment),stoichiometry N,2
